Kd and EC50 data for 3 sequences are collected here from the supplement of paper PMC6379048.

In one series the target is T1, DIS3L2 (UniProt Q8IYB7).
T1 sequence: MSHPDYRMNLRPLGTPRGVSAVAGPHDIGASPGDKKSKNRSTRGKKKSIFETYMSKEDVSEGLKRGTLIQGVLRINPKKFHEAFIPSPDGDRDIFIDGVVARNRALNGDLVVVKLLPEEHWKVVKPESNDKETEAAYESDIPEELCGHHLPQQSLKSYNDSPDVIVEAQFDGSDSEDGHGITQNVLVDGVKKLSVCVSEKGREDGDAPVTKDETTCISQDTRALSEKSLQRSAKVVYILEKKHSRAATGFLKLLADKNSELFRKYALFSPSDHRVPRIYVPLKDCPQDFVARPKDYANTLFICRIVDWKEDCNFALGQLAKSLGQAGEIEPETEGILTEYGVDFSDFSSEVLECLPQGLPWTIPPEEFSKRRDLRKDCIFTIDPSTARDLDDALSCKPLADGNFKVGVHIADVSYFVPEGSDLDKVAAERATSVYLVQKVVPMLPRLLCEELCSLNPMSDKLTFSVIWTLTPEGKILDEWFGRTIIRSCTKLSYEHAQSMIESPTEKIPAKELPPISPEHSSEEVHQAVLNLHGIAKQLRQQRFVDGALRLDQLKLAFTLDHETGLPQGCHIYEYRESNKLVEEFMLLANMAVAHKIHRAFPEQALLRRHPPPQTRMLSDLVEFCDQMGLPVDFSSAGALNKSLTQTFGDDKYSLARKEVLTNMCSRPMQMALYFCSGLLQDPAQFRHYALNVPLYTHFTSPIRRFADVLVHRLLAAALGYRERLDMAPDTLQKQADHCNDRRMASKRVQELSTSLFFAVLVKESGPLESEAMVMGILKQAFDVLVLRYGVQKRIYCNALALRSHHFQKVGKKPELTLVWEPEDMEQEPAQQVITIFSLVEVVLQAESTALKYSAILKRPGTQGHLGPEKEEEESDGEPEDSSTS
Briefly: Kd (EC50 corrected by depletion factor). Put shortly: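 Free RNA oligos (0 nM to 30 μM) were pre-incubated with HEK293-FT lysate (2.5 mg protein/well) for 1 h at 4°C, followed by 30 min at 4°C with the same 5′-amino-C6 oligos coupled to NHS-Sepharose beads. Bound proteins were quantified by label-free LC-MS/MS and normalised to the control. EC50 was derived from a four-parameter log-logistic fit, and Kd was obtained by multiplying EC50 by a protein-dependent depletion factor.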

The target of a further series is T2, DHX36 (UniProt Q9H2U1).
T2 sequence: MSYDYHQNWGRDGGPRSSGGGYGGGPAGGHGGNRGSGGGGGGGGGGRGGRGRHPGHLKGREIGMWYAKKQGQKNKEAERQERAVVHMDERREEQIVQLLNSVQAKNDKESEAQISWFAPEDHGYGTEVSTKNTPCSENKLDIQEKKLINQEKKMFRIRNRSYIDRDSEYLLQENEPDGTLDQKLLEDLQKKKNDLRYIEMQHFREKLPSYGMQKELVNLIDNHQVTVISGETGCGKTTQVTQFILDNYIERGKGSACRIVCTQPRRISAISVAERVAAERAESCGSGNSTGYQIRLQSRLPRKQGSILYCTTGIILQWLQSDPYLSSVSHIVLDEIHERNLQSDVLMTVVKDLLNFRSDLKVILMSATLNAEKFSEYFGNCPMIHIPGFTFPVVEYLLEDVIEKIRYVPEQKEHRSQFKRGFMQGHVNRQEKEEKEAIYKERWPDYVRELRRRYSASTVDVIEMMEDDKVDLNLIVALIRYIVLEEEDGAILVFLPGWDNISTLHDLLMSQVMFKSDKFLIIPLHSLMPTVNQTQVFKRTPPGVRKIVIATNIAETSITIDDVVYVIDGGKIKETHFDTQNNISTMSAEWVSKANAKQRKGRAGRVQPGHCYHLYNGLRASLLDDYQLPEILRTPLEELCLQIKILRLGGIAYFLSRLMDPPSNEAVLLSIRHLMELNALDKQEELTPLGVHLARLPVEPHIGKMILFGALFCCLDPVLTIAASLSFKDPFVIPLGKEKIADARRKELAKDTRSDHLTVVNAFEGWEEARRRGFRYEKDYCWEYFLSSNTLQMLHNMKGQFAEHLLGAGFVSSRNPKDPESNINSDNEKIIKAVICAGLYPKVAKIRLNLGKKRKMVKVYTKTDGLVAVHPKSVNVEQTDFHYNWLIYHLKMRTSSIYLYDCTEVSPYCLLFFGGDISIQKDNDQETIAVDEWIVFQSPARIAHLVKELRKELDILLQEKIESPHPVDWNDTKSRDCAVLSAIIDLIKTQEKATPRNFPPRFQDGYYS
Briefly: EC50 of free RNA motif oligo competing protein binding to immobilised probe. The method, then: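 Competition-binding assay: HEK293-FT cell lysate (2.5 mg protein) pre-incubated 1 h at 4°C with free motif-containing RNA oligos (0 to 30 µM, 12 doses), then pulled down with the same 5'-amino-C6 RNA oligos immobilised on NHS-Sepharose beads (30 min, 4°C). Bound proteins were quantified by label-free LC-MS/MS and normalised to the water control. EC50 came from a four-parameter log-logistic fit; Kd = EC50 x depletion factor. Random/reversed control probes are dropped.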

Sequence AAUAAA gave a Kd with DIS3L2 of 383 nM. This sequence had an EC50 with DHX36 of 3290 nM.
The corresponding values for CUGUCCU are 774 nM and 5030 nM.
The corresponding values for UAUUUAU are 290 nM and 1010 nM.
